Here are results for five molecules from patent US20120231006A1 (Amgen, published 2012).

Changes are numbered by the printed parent chain.

The target in experiment [1] is human Orai1 (human, UniProt Q96D31 1-301). The experiment is described as follows: cell-based or functional assay.
The target of experiment [2] is T1, mOrai1-hOrai1 ECL2 chimeric protein (human/mouse chimera, UniProt Q8BWG9 1-304 (mouse entry)).
T1 construct: mouse Orai1 with human ECL2; also called Ch
Briefly: FACS, 293EBNA, RFI-POC grade. Details: concentration or dose not given beside the values. The text has this: (§1) FIG. 16A-D illustrates the results of FACS analysis showing binding to the indicated mOrai1-hOrai1 ECL2 chimeric mutants expressed on the surface of HEK-293-EBNA cells. Transfected cells were stained first with recombinant monoclonal antibodies then counter-stained with a secondary phycoerythrin-labeled goat (“Gt”) anti-human (“Hu”) IgG F(ab′)₂ antibody fragment and visualized using FACS. In FIG. 16B and FIG. 16D, The values of Relative Fluorescence Intensity as Percent of Control (RFI-POC) are calculated from the relative fluorescence intensity geometric mean (Geo Mean). The geometric mean is an average calculated by multiplying a series of numbers and taking the nth root where n is the number of numbers in the series. It is a statistical average of a set of transformed numbers often used to represent a central tendency in a highly variable data set that minimizes the effects of extreme values.
(§2) Table 11A and Table 11B feature a schematic representation of the POC data from FIG. 16B and FIG. 16D, respectively, where the binding results are recorded as (+++) denoting binding POC from 40% to 100%, (++) for POC of 5% to less than 40%, (+) for POC from 1% to less than 5% and (−) as lack of binding with POC less than 1%.
In general terms: Flow cytometry measures light scatter and fluorescence of single cells or particles in a stream.

For experiment [3], the target named is T2, mOrai1-hOrai1 ECL2 (VIV) protein (human/mouse chimera, UniProt Q8BWG9 1-304 (mouse entry)).
T2 construct: also called Ch
Briefly: FACS, 293EBNA, RFI-POC grade. Details: concentration or dose not given beside the values.
Text: as §1, §2

The target of experiment [4] is T3, mOrai1-hOrai1 ECL2 (HSD) protein (human/mouse chimera, UniProt Q8BWG9 1-304 (mouse entry)).
T3 construct: also called Ch
Briefly: FACS, 293EBNA, RFI-POC grade. Also on record: concentration or dose not given beside the values.
Text: as §1, §2

For experiment [5], the target named is T4, human Orai2 (human, UniProt Q96SN7 1-254).
T4 construct: also called hOrai2
The experiment is described as follows: FACS, 293EBNA transfectants. The method, then:
(§3) Purified monoclonal antibodies from hybridoma supernantants of the subclones derived from initial hits were assessed for binding to human Orai1, Orai2 and Orai3 expressed on HEK-293-EBNA cells along with vector transfected control parental cells. Cells stained with or without primary mAbs were counter-stained with a secondary phycoerythrin-labeled goat (“Gt”) anti-human (“Hu”) IgG F(ab′)₂ antibody fragment and visualized using FACS.
(§4) FACS binding analysis. Transfected 293EBNA cells transiently expressed hOrai1, human Orai2, or human Orai3 (results of binding comparison in FIG. 11A-B), or hOrai1(S218G) (results of binding comparison in FIG. 12A-B); or hOrai1 and hSTIM1; mOrai1 and mouse STIM1; or rat Orai1 and rat STIM1 (results of binding comparison in FIG. 13). The transfected cells were harvested at 48 hours post-transfection. Cells transfected with pcDNA3.1 were used as negative controls. Cells were washed once with ice-cold 1×PBS, resuspended in ice-cold FACS buffer (1×D-PBS+2% goat serum), and 2×10⁵ cells in […] were stained per antibody combination. All antibody incubation steps were performed on ice for 1 hour. […] Next, the unlabelled antibody was detected using goat F(ab′)₂ anti-mouse or anti-human IgG-phycoerythrin (IgG-PE), followed by a wash with 200 μL of ice-cold FACS buffer before flow cytometry analysis. Unstained cells and cells stained with detecting antibodies were used as negative controls. The values of relative level of fluorescence were calculated using FCS Express (De Novo Software) and mean values were calculated using log-transformed data (geometric mean). Purified mAbs were assessed by FACS assay for their ability to specifically bind human Orai1, Orai2 and Orai3 proteins expressed on HEK-293 cells.

Experiment [6] addresses human Orai3 (human, UniProt Q9BRQ5 1-295). The experiment is described as follows: FACS, 293EBNA transfectants. The method, then: as §3, §4
The target in experiment [7] is T5, hOrai1-mOrai1 ECL2 chimeric protein (human/mouse chimera, UniProt Q96D31 1-301).
T5 construct: human Orai1 with mouse ECL2; also called Ch
The experiment is described as follows: FACS, 293EBNA transfectants. From the text: FIG. 15A-B illustrates the results of FACS analysis showing binding to human Orai1 extracellular loop 2-mouse Orai1 mutant expressed on the surface of HEK-293-EBNA cells. HEK-293-EBNA cells were transiently transfected with mouse Orai1 mutant where human Orai1 extracellular loop 2 replaced the mouse Orai1 extracellular loop 2 and human Orai1 mutant where mouse Orai1 extracellular loop 2 replaced human extracellular loop 2. Transfected cells were stained first with recombinant monoclonal antibodies then counter-stained with a secondary phycoerythrin-labeled goat (“Gt”) anti-human (“Hu”) IgG F(ab′)₂ antibody fragment and visualized using FACS.
FACS binding analysis. Transfected 293EBNA cells transiently expressed hOrai1-mOrai1 ECL2 or mOrai1-hOrai1 ECL2 chimera. The transfected cells were harvested at 48 hours post-transfection. Cells transfected with pcDNA3.1 were used as negative controls. Cells were washed once with ice-cold 1×PBS, resuspended in ice-cold FACS buffer (1×D-PBS+2% goat serum), and 2×10⁵ cells in 100 μL were stained per antibody combination. All antibody incubation steps were performed on ice for 1 hour. […] Next, the unlabelled antibody was detected using goat F(ab′)₂ anti-mouse or anti-human IgG-phycoerythrin (IgG-PE), followed by a wash with 200 μL of ice-cold FACS buffer before flow cytometry analysis. Unstained cells and cells stained with detecting antibodies were used as negative controls. The values of relative level of fluorescence were calculated using FCS Express (De Novo Software) and mean values were calculated using log-transformed data (geometric mean). The results of the FACS analysis are shown in FIG. 15A-B, which supports the conclusion that the hOrai1 ECL2 domain is the region of hOrai1 where antibodies of the present invention bind.

The target of experiment [8] is T6, mouse Orai1 (mouse, UniProt Q8BWG9 1-304).
T6 construct: co-expressed with mouse STIM1; also called mOrai1
The experiment is described as follows: FACS, 293EBNA transfectants with STIM1, thapsigargin. As for the experimental part: (§5) FIG. 13A-B illustrates the results of FACS analysis showing binding to human Orai1 expressed on the surface of HEK-293-EBNA cells that were treated with 2 μM Thapsigargin. HEK-293-EBNA cells were transiently transfected with human Orai1 and human STIM1, mouse Orai1 and mouse STIM1, rat Orai1 and rat STIM1 and control empty vector. Transfected cells were stained first with recombinant monoclonal antibodies then counter-stained with a secondary phycoerythrin-labeled Gt anti-Hu IgG F(ab′)₂ or Gt anti-Mu IgG F(ab′)₂ antibody fragment, as appropriate, and visualized using FACS.
as §4

The target in experiment [9] is T7, rat Orai1 (rat, UniProt Q5M848 1-304).
T7 construct: co-expressed with rat STIM1; also called rOrai1
The experiment is described as above. As for the experimental part:
as §5, §4

T5 sequence (Q96D31 other isoform, or with tags, fused parts or gaps mutant): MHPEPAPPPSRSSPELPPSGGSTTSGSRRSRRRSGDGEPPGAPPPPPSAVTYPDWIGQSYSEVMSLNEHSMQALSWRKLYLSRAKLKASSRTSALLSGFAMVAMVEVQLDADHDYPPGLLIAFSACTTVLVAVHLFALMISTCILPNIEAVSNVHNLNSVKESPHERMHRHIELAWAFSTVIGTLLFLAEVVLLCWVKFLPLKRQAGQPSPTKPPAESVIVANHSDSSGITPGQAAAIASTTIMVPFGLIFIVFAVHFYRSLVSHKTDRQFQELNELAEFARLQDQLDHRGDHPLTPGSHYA
T7 sequence (Q5M848 whole entry): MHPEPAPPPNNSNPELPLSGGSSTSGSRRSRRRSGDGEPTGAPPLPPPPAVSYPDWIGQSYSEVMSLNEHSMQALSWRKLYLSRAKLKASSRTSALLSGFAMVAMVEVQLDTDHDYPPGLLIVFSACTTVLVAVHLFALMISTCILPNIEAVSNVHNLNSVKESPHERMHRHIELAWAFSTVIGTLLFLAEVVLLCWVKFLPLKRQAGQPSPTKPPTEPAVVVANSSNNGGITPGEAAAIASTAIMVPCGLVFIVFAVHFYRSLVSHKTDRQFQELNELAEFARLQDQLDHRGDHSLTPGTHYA
T4 sequence (Q96SN7 whole entry): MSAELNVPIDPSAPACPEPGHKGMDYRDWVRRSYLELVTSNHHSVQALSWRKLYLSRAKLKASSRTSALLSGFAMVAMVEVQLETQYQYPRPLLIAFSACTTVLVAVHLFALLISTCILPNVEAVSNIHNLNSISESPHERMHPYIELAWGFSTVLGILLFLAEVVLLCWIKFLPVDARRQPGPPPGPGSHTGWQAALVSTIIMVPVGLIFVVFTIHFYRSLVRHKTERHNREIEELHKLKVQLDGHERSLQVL
Sequence of human Orai1 (Q96D31 whole entry): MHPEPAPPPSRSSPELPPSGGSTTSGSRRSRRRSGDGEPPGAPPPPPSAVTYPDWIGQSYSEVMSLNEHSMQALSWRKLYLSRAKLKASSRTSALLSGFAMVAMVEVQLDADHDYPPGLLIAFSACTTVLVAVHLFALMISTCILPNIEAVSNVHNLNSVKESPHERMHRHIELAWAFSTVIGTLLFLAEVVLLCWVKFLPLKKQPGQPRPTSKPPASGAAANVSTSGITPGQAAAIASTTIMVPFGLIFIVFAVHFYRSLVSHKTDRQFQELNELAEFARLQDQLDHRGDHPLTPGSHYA
T6 sequence (Q8BWG9 whole entry): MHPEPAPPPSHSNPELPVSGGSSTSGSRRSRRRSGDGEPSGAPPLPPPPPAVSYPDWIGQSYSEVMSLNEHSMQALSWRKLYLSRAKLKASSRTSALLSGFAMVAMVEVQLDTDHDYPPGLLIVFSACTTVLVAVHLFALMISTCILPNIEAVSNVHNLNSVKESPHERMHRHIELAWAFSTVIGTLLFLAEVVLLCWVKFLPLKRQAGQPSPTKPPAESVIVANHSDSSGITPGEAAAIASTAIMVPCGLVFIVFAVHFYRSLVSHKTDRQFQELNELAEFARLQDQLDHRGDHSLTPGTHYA
T3 sequence (Q8BWG9 other isoform, or with tags, fused parts or gaps): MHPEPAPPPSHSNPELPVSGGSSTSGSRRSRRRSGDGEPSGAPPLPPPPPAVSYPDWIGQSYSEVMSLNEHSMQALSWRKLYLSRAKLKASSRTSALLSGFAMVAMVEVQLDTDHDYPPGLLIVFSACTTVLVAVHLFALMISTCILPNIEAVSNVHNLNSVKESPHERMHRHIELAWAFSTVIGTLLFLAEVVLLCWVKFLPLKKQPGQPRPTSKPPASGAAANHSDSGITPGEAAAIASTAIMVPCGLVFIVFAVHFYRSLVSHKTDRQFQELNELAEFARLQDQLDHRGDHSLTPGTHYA
T1 sequence (Q8BWG9 other isoform, or with tags, fused parts or gaps mutant): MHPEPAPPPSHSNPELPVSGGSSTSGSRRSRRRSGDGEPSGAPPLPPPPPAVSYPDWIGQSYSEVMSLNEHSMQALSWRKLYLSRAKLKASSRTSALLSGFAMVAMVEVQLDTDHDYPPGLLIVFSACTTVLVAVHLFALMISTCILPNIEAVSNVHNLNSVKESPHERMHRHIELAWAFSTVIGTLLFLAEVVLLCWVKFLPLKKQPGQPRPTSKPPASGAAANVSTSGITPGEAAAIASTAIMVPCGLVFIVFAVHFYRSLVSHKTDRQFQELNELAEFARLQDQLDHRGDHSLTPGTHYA
T2 sequence (Q8BWG9 other isoform, or with tags, fused parts or gaps): as the sequence (Q8BWG9 other isoform, or with tags, fused parts or gaps mutant) above, with G221V, A222I, A223V counted along it

B1: mAb 5F7.1 (antibody, human IgG2, lambda)
heavy: QVQLVQSGAEVKKPGASVKVPCKASGYTFTDYYINWVRQAPGQGLEWMGWINPNNGGTNYAQKFQGRVTMTRDTSISTAYMELRRLRSDDTAVYYCARERGGYEDWFDPWGQGTLVTVSSASTKGPSVFPLAPCSRSTSESTAALGCLVKDYFPEPVTVSWNSGALTSGVHTFPAVLQSSGLYSLSSVVTVPSSNFGTQTYTCNVDHKPSNTKVDKTVERKCCVECPPCPAPPVAGPSVFLFPPKPKDTLMISRTPEVTCVVVDVSHEDPEVQFNWYVDGVEVHNAKTKPREEQFNSTFRVVSVLTVVHQDWLNGKEYKCKVSNKGLPAPIEKTISKTKGQPREPQVYTLPPSREEMTKNQVSLTCLVKGFYPSDIAVEWESNGQPENNYKTTPPMLDSDGSFFLYSKLTVDKSRWQQGNVFSCSVMHEALHNHYTQKSLSLSPGK
light: QSVLTQPPSVSGAPGQRVTISCTGSSSNIGAGFDVHWYQQLPVTAPKLLIYGNRNRPSGVPARFSGSKSGTSASLAITGLQAEDEAVYYCQSYDSSLTVFGGGTKLTVLGQPKANPTVTLFPPSSEELQANKATLVCLISDFYPGAVTVAWKADGSPVKAGVETTKPSKQSNNKYAASSYLSLTPEQWKSHRSYSCQVTHEGSTVEKTVAPTECS
notes: fully human IgG2 lambda, Campaign 2
In the case of B1, the “IC50 IFN-γ, whole blood Donor B” value in [1] turned out to be 11.8 nM. Besides, the “IC50 IL-2, whole blood Donor A” value in [1] is 4.05 nM. The “IC50 IL-2, whole blood Donor B” value in [1] was found to be 3.49 nM. For the same molecule, the “POC (percent of control, FACS Geo Mean relative to binding to Ch. 1)” value in [2], in experiment [3] and in [4] was 40 to 100% in each case. The binding result in [5], in experiment [6], in [7], in experiment [8] and in experiment [9] was “no binding (tested: 1 µg)” in each case.

B2: mAb 2B4.1 (antibody, human IgG2, lambda, V domains shown)
VH: QVQLVQSGAEVKKPGASVKVSCKASGYTFTDYYMHWVRQAPGQGLEWMGWINPNSGGTNYVQKFQDRVTMTRDTSITTAYMELTRLRSDDTAVYYCAREEGDYGMDVWGQGTTVTVSS
VL: QSVLTQPPSVSGAPGQRVTISCTGSNSNIGTGYDVHWYQKLPGTAPRLLIYSHFNRPSGVPDRFSGSTSGTSASLAITGLQAEDEADYYCQSYDSSLSGSVFGGGTKLTVLG
As to B2, the binding result in [5], in experiment [6], in [7], in experiment [8] and in experiment [9] was “no binding (tested: 1 µg)” throughout.

B3: mAb 2D2.1 (antibody, human IgG2, lambda, V domains shown)
VH: QVQLQQWGAGLLKPSETLSLTCAVYGGSFSGYYWSWIRQPPGKGLEWIGEIDHSGRINYNPALKSRLTISVDTSKNQFSLKLSSVTAADTAVYYCARAGSGGYEDWFDPWGQGTLVTVSS
VL: QSVLTQPPSVSGAPGQRVTISCTGSSSNIGAGYNVHWYQQFPRTDPKLLIYVYNIRPSGVPDRFSGSRSGTSASLAITGLQTEDEADYYCQSYDSSLSGVVFGGGTKLTVLG
notes: fully human IgG2 lambda, Campaign 1; also called mAb 2D.1
For B3, the “POC (percent of control, FACS Geo Mean relative to binding to Ch. 1)” value in [2], in experiment [3] and in experiment [4] was 40 to 100% each time. Moreover, the binding result in [5], in [6], in experiment [7], in experiment [8] and in experiment [9] was “no binding (tested: 1 µg)” in each case.

B4: mAb 2B7.1 (antibody, human IgG2, V domains shown)
VH: B3 VH with R56S, I57T
VL: B3 VL with A31T
notes: fully human, Campaign 1
On to B4, for which the binding result in [5], in [6], in [7], in [8] and in experiment [9] was “no binding (tested: 1 µg)” throughout.

B5: mAb 2C1.1 (antibody, human IgG2, lambda, V domains shown)
VH: B3 VH with R56S, I57T
VL: B3 VL
notes: fully human IgG2 lambda, Campaign 1; tested hybridoma-purified and recombinant; also called anti-hOrai1 mAb 2C1.1
B5: the binding result in [5], in experiment [6], in experiment [7], in experiment [8] and in experiment [9] was “no binding (tested: 1 µg)” each time.
